Measured values as given in patent US7704703B2, “Arf and Hdm2 interaction domains and the methods of use thereof” (St. Jude Children's Research Hospital, Inc., priority 2002, dated 2010).
Entries after “also recorded” stand apart in the source; their conditions may differ.

Experiments:
Hdm2 210-275 = molecular target: T1, Hdm2 210-275 (Homo sapiens, UniProt Q00987); assay: CD-based binding assay, induction of β-strand secondary structure with Hdm2 210-275
T1 construct: poly-His (thrombin cleavable, pET28a) (cleaved yes); made in house; host or cells: E. coli BL21(DE3)
Experimental: Circular Dichroism. Spectra were recorded at 25° C. using an Aviv Model 62A DS circular dichroism spectropolarimeter (Aviv Instruments, Inc.) equipped with a thermoelectric temperature control unit. All samples were prepared in 10 mM Tris-HCl, pH 7.0 at 0.02-0.2 mM as determined by amino acid analysis. Spectra were recorded using 1 mm quartz cuvettes and reported spectra are the average of 10 scans over the range […]. Melting experiments were recorded in 10 mm quartz cuvettes with active stirring. The signal at 216 nm (β strand minimum) was used to monitor structural changes and the signal was averaged over 15 sec. The sample temperature was increased in 1° C. steps.
β-strand secondary structure forms when Arf and Hdm2 interact. […] This structural transition is induced when mArfN37 is added to an Hdm2 fragment and when an Hdm2 fragment is added to mArfN37. […] In contrast, the uncomplexed species elute at times consistent with monodisperse, conformationally extended polypeptides. Second, NMR resonances for ^15N-mArfN37 or ^15N-Hdm2 210-304 (and ^15N-Hdm2 210-275) are broadened beyond detection when an unlabeled form of the appropriate binding partner is added to the solution. At mArfN37:Hdm2 210-304 (or mArfN37:Hdm2 210-275) molar ratios that produce maximal β-strand secondary structure based on ellipticity at 200 nm using CD, resonances cannot be observed for the isotope-labeled component of Arf/Hdm2 mixtures. Further, the NMR spectra are consistent with slow exchange between the free and bound states.
Characterization of Arf Hdm2 assemblies. As discussed above, the addition of mArfN37 to Hdm2 210-304 results in the formation of supramolecular assemblies comprised of β-strands. Stepwise addition of sub-stoichiometric amounts of mArfN37 to Hdm2 210-304 increased β-strand secondary structure content as judged by the change in ellipticity at 200 nm using CD. […] The binding of mArfN37 to Hdm2 210-304, as monitored in this way, is saturable. Similar results were obtained when mArfN37 was mixed with the shorter fragment of Hdm2, Hdm2 210-275. Further, saturable binding is also observed when the Hdm2 fragments were added to an excess of mArfN37. These findings indicate that there are a limited number of binding sites for mArfN37 within Hdm2 210-304 and that discreet structures (containing β-strands) form when mArfN37 and Hdm2 210-304 (or 210-275) are mixed. […] Similar behavior is observed when mArfN37 binds Hdm2 210-275.

mArfN37 = molecular target: T2, mArfN37 (Mus musculus, UniProt Q64364); assay: Surface plasmon resonance: Hdm2 fragments and peptides binding to immobilized His-tagged mArfN37
T2 construct: mouse p19^Arf corresponding to residues 1-37 (mArfN37); made in house; host or cells: E. coli BL21(DE3) (purified 'in a similar manner' to the Hdm2 fragments)
T2 sequence (Q64364 1-37 limits assumed): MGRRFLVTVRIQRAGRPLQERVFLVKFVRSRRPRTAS
Experimental: Surface Plasmon Resonance. Binding studies were performed using a Biacore 3000 surface plasmon resonance (SPR) instrument (Biacore, Inc.). A Tetra-His™ Antibody (Qiagen, Inc.; Cat. #34670) was covalently attached to a carboxymethylated gold surface (C-1 chip; Biacore, Inc.). The carboxymethyl groups on the surface were activated with N-ethyl-N′-(3-dimethylaminopropyl) carbodiimide (EDC) and N-hydroxysuccinimide (NHS) and the antibody was attached at pH 7.4 in 20 mM sodium phosphate buffer, 150 mM NaCl (PBS). Reactive sites remaining on the surface were blocked by reaction with ethanolamine. […] Binding was measured by flowing the non-His-tagged analyte through the reference and ligand-containing flow cells in sequence. […] Changes in the SPR response due to solvent differences and the injection process were monitored by injection of HBS-N buffer alone. […]
Small segments of Arf and Hdm2 participate in Arf/Hdm2 interactions. […] However, because mArfN37 is a relatively small polypeptide, it was determined whether it could bind a correspondingly small segment of Hdm2. To test this hypothesis and to monitor Arf/Hdm2 binding reactions quantitatively, Hdm2 constructs were prepared spanning amino acids 210-304 of SEQ ID NO:8 and 210-275 of SEQ ID NO:8 and then it was determined whether they could bind mArfN37 using surface plasmon resonance (SPR). […]

GFP-p19^Arf = molecular target: T3, GFP-p19^Arf (Mus musculus, UniProt Q64364); assay: Microinjection and live cell imaging of Texas Red labeled Hdm2 constructs in NIH 3T3 cells lacking Arf; type: cell-based; conditions: for localization after nuclear microinjection in the presence of GFP-p19^Arf: transfected with GFP-p19^Arf
T3 construct: expressed in transfected cells; host or cells: NIH 3T3 Arf-/- cells
T3 sequence (Q64364 1-169): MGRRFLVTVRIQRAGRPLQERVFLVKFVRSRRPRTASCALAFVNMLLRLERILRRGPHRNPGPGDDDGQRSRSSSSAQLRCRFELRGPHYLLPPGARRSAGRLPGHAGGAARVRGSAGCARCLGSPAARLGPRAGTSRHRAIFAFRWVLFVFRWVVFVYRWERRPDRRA
Experimental: Fluorescent labeling. Proteins for fluorescence microimaging studies were covalently modified using an amine-reactive, sulfosuccinimidyl ester of TEXAS RED® (C31H29S2N2O6Cl1) (Molecular Probes, Inc., Cat. # C-1171). In brief, purified Hdm2-derived proteins were dialyzed into 100 mM sodium bicarbonate buffer, pH 8.3 at 2-4 mg/ml. The Texas Red™ dye was dissolved in dimethylsulfoxide at 10 mg/ml. Protein and dye 3:1 (vol:vol) were reacted for 1 hour at room temperature followed by purification using size-exclusion chromatography (NAP 5 G-25 columns, Amersham Pharmacia Biotech, Inc.). Labeled protein bands migrated more slowly than unlabeled protein in SDS-polyacrylamide gels consistent with the covalent attachment of dye.
Cell culture and microinjection. NIH 3T3 Arf^−/− cells passage 10-15 were cultured in Dulbecco's modified Eagle's medium (Dulbecco's modified Eagle's medium (DMEM); Gibco-Invitrogen, Inc.), 10% fetal bovine serum (FBS) at 37° C., 7% CO2. […] GFP-Arf positive cells were then located and co-injected with TEXAS RED® (C31H29S2N2O6C1 labeled Hdm2 polypeptides (2 mg/ml in 20 mM Tris-HCl, 100 mM NaCl, pH 7.0) using a Micromanipulator 5171/Transjector 5246 (Eppendorf, AG) in media supplemented with 10 mM HEPES, pH 7.2 to buffer cell media during injection and imaging. Representative cells were imaged over time. An Axiovert 135 TV inverted fluorescence microscope with an automated stage controller (Carl Zeiss, Inc.) and circulating water bath heater (Fisher) was used for both microinjection and imaging. Images were acquired with a Zeiss 40×NA=1.30 oil objective and MicroMax CCD camera (Princeton Instruments Inc.) operated with MetaMorph Version 4.01 imaging software. […]
TEXAS RED® (C31H29S2N2O6Cl1) labeled Hdm2 deletion constructs containing residues 210-275, 210-304, 277-350 and 277-491 were individually injected into cells in the absence or presence of the GFP-p19^Arf fusion protein. […] The use of live cell imaging also allowed the kinetics of localization to be monitored. […]

T1 sequence (Q00987 210-275): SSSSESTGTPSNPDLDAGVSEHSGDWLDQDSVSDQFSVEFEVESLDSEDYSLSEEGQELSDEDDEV

## mouse A1 (1-14): peptide corresponding to the first mouse Arf motif, residues 1-14 (MGRRFLVTVRIQRA)
Hdm2 210-275
  induction of β-strand secondary structure/assembly when mixed with Hdm2 210-275 (CD): interaction

## peptide containing residues 290-304: short synthetic Hdm2 peptide, residues 290-304 of SEQ ID NO:8 (SFEEDPEISLADYWK; listed as Homo sapiens)
mArfN37; 15 amino acid peptides of the central region of Hdm2
  relative affinity of Hdm2 synthetic peptides for mArfN37 (SPR): modest affinity

## Hdm2 277-491: Texas Red labeled Hdm2 deletion construct containing residues 277-491
GFP-p19^Arf
  localization after nuclear microinjection in the presence of GFP-p19^Arf: nucleolar localization

## Hdm2 210-304: Arf-binding domain of Hdm2, amino acids 210-304 of SEQ ID NO:8
GFP-p19^Arf; no GFP-p19^Arf
  localization after nuclear microinjection in the absence of Arf: evenly dispersed in the nucleoplasm
GFP-p19^Arf
  localization after nuclear microinjection in the presence of GFP-p19^Arf: co-localized within nucleoli; also recorded: nucleolar localization
mArfN37; Hdm2 protein fragments as analyte, no binding to control surface
  binding of Hdm2 fragment to His-tagged mArfN37 immobilized on SPR biosensor surface: bind tightly

## MVRRFLVTLRIRRA (listed as Homo sapiens) [human A1 (1-14), peptide of the first Arf motif of human p14^Arf, residues 1-14]
Hdm2 210-275
  induction of β-strand secondary structure/assembly when mixed with Hdm2 210-275 (CD): interaction

## human A2 (16-30): peptide containing the second human Arf motif, residues 16-30 (GPPRVRVFVVHIPRL)
Hdm2 210-275
  induction of β-strand secondary structure/assembly when mixed with Hdm2 210-275 (CD): fail to induce β-strand assembly

## mouse A2 (16-30): peptide corresponding to the second mouse Arf motif, residues 16-30 (RPLQERVFLVKFVRS)
Hdm2 210-275
  induction of β-strand secondary structure/assembly when mixed with Hdm2 210-275 (CD): fail to induce β-strand assembly
